Reference: patent publication US20130316951A1

Molecular target: platelet glycoprotein (GP) IIb/IIIa on platelets of mouse platelet rich plasma (mouse) (UniProt Q9QUM0)
Test: cell-based or functional assay

Sequence of platelet glycoprotein (GP) IIb/IIIa on platelets of mouse platelet rich plasma (mouse) (Q9QUM0 32-1033, chain 1 of 2): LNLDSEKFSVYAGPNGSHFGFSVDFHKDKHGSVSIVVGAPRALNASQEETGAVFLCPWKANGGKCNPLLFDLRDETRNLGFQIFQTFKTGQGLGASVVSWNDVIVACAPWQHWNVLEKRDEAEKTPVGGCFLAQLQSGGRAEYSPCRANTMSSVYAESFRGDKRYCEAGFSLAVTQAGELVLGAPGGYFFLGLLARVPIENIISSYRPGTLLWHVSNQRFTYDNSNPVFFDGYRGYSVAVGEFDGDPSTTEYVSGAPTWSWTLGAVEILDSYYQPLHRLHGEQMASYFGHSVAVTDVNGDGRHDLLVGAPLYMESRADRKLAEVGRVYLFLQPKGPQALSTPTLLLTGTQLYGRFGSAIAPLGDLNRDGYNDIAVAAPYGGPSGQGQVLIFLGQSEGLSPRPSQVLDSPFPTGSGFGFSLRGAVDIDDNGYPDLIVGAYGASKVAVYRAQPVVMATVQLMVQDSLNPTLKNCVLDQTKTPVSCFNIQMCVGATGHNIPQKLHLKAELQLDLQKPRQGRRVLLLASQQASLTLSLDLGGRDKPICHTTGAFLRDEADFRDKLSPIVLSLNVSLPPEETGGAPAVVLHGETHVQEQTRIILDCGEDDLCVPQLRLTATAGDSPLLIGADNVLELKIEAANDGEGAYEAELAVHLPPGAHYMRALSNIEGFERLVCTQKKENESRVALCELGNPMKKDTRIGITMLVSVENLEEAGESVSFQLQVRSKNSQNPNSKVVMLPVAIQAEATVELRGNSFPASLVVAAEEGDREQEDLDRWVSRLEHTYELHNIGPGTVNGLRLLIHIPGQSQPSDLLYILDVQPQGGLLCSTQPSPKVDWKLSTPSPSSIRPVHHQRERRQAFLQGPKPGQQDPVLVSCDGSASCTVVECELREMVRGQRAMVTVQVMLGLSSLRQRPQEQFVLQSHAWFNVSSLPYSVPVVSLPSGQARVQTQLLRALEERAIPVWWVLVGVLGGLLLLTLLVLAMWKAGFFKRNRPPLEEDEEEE
Sequence of platelet glycoprotein (GP) IIb/IIIa on platelets of mouse platelet rich plasma (mouse) (O54890 26-787, chain 2 of 2, further chain): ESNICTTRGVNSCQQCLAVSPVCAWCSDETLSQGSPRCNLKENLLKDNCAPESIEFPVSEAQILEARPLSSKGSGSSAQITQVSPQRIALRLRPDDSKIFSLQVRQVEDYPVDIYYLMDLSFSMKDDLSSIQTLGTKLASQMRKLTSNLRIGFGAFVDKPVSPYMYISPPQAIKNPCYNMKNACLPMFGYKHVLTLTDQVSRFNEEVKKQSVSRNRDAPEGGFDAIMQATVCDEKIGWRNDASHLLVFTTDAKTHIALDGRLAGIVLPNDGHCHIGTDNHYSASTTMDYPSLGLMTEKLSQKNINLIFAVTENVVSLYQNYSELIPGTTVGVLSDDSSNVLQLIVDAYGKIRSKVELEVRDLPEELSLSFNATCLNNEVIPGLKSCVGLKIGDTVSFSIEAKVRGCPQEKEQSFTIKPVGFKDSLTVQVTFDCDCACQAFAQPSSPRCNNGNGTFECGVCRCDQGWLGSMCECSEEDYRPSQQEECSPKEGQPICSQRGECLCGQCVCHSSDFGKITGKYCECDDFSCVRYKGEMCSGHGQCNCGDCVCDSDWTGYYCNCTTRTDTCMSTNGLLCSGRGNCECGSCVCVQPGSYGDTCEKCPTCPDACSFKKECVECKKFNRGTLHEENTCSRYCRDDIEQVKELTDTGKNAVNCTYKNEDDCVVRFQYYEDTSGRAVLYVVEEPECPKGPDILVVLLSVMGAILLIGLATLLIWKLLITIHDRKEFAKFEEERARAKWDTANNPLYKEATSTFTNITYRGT

**Q.** Which IC50 of inhibition of ADP-induced platelet aggregation, mouse PRP, aggregometer does the source give for “recombinant saxatilin (from UniProt Q9DGH6 1-73) (ligand)” here?
**A.** 176 nM

**Q.** And the treatment concentration giving a similar level of platelet aggregation inhibition?
**A.** 0.7 µM
